Patent publication US20060014937A1

Molecular target: HBV S-surface antigen (International Enzyme Inc., USA) adr type (hepatitis B virus (adr type))
Test: competition ELISA in solution (Friguet method): antibody pre-mixed with 10^-11 to 10^-6 M antigen, free antibody caught on antigen-coated plate

| Ka | Binder |
| --- | --- |
| 1e+08 M⁻¹ | humanized antibody YHB1110-13 (antibody, V domains shown) VH: QVQLKQSGPGLVKPSQTLSLTCTVSGFSLSTYGVQWVRQPPGKGLEWLGVIWSGGNTDYNAAFISRVTISKDTSKNQVSLKLSSVTAADTAVYYCARARYFDVWGAGTTVTVSS VL: QAVVTQEPSLTVSPGGTVTLTCRSSTGAITTNNFANWFQQKPGQAFRGLIGDTNNRVPGVPARFSGSLLGNKAALTITGAQPEDEAEYYCALWYNNWVFGGGTKLTVLG |
| 7e+07 M⁻¹ | humanized antibody YHB1110-15 (antibody, V domains shown) VH: QVQLKQSGPGLVKPSQTLSLTCTVSGFSLSTYGVQWVRQPPGKGLEWLGVIWSGGNTDYNAAFISRVTISKDTSKNQVSLKLSSVTAADTAVYYCARARYFDVWGAGTTVTVSS VL: QAVVTQEPSLTVSPGGTVTLTCRSSTGAITTNNFANWFQQKPGQAFRGLIGDTNNRVPGVPARFSGSLIGDKAALTITGAQPEDEAEYYCALWYNNWVFGGGTKLTVLG |
